Experimental data published in article PMC2363969 (British Journal of Cancer, 2001).

B1: gp100/pmel17 283-304 (peptide)
peptide: PGPVTAQVVLQAAIPLTSCGSS
notes: gp100/pmel17 melanoma-associated antigen, residues 283-304; also called gp100283-304; g283; source: synthetic peptide (FMOC chemistry, UPCI Peptide Synthesis Facility), >90% pure
B2: gp100/pmel17 506-522 (peptide)
peptide: EGDAFELTVSCQGGLPK
notes: gp100/pmel17 melanoma-associated antigen, residues 506-522; also called gp100506-522; g506; source: synthetic peptide (FMOC chemistry, UPCI Peptide Synthesis Facility), >90% pure
B3: gp100/pmel17 167-189 (peptide)
peptide: VSGLSIGTGRAMLGTHTMEVTVY
notes: gp100/pmel17 melanoma-associated antigen, residues 167-189; also called gp100167-179; g167; source: synthetic peptide (FMOC chemistry, UPCI Peptide Synthesis Facility), >90% pure
B4: gp100/pmel17 6-26 (peptide)
peptide: KRCLLHLAVIGALLAVGATKV
notes: gp100/pmel17 melanoma-associated antigen, residues 6-26; also called gp1006-26; g6; source: synthetic peptide (FMOC chemistry, UPCI Peptide Synthesis Facility), >90% pure
B5: gp100/pmel17 540-561 (peptide)
peptide: LCQPVLPSPACQLVLHQILKGG
notes: gp100/pmel17 melanoma-associated antigen, residues 540-561; also called gp100540-561; g540; source: synthetic peptide (FMOC chemistry, UPCI Peptide Synthesis Facility), >90% pure

These binders were tested against HLA-DRB1*0401 (human) (assay: radioligand binding; solid-state competitive-binding assay (as in Southwood et al, 1998): the peptide blocks the binding of a radio-labeled reference peptide to purified HLA-DR4 complexes; IC50 in nM). Conditions: both partners purified.
In the case of B1, the IC50 is reported as 2890 nM.
B2 showed an IC50 of 3210 nM.

What follows are binders tested against HLA-DRB1*0404 (human) in the same assay as above. Conditions: both partners purified.
With B3 the IC50 was 372 nM.
With B4 the IC50 was 335 nM.
Work on B5 yielded an IC50 of 614 nM.
Binder B2 has an IC50 of 3550 nM.
